Laboratory results as given in the supplement of paper PMC10567573.

B1: RIT1 (parent)
chain: FHALVREIRRKEKEAVLAMEKKSK
B2: GALNT9 (parent)
chain: FTQSGPIVSRATGRCLEVEMSKDA

Variants of: B1
Experiment: protein stability index of a GFP-peptide fusion (GPS, HEK-293T) (PSI 1-6); higher = more stable
Settings: c terminus: a fixed tail appended
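Also: lentivirally expressed fusions sorted by FACS into six bins by GFP to DsRed ratio, PSI derived from sequencing read proportions per bin multiplied by bin number.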

Protein stability index, by site and new letter:
E12: C 1.81 | D 2.13 | F 1.64 | G 2.28 | H 2.05 | I 3.76 | K 2.03 | L 1.81 | M 3.96 | N 2.45 | Q 1.89 | R 2.06 | S 3 | T 2.42 | V 2.48 | Y 2.69
K13: A 2.04 | C 2.01 | D 1.56 | E 1.08 | F 2.27 | G 1.37 | H 2.38 | I 3.75 | L 3.67 | M 1.5 | N 2.02 | P 2.32 | Q 2.58 | R 1.67 | S 2.42 | T 1.77 | V 1.26 | W 1.95 | Y 1.81
E14: A 2.29 | C 1.58 | D 1.41 | F 2.15 | G 1.39 | H 1.96 | I 1.85 | K 2.89 | M 2.1 | N 1.62 | P 1.73 | Q 1.55 | R 1.84 | S 1.8 | T 1.93 | V 1.9 | W 2.42 | Y 2.17
A15: C 2.1 | D 2.3 | E 1.58 | F 1.91 | G 1.91 | H 2.28 | I 2.05 | K 2.72 | L 1.63 | M 2.17 | N 1.81 | P 2.9 | Q 2.19 | R 1.72 | S 2.52 | T 2.18 | V 2.4 | W 2.02 | Y 2.12
V16: A 2.26 | D 1.3 | E 2.59 | F 2.45 | G 1.7 | H 2.47 | I 1.36 | K 1.81 | L 2.05 | M 1.66 | N 1.42 | P 2.62 | Q 2.22 | R 2.69 | S 2.64 | T 1.57 | W 2.27 | Y 1.95
L17: A 1.85 | C 2.16 | D 1.51 | E 2.09 | F 2.12 | G 1.7 | H 2.11 | I 2.1 | K 1.97 | M 1.86 | N 2.18 | P 1.77 | Q 1.88 | R 1.9 | S 1.88 | T 2.21 | V 1.47 | W 1.7 | Y 2.05
A18: C 1.89 | D 1.96 | E 1.22 | F 2.15 | G 1.71 | H 2.85 | I 1.69 | K 2.5 | L 1.66 | M 2.08 | N 3.42 | P 1.23 | Q 1.95 | R 2.11 | S 2.26 | T 1.91 | V 1.84 | W 1.68 | Y 1.18
M19: A 1.68 | D 2.04 | E 1.88 | F 2.23 | G 2.23 | H 1.35 | I 1.24 | K 2.17 | L 3.14 | N 2.14 | P 1.7 | Q 1.44 | R 2.3 | S 1.79 | T 1.78 | V 1.79 | W 1.53 | Y 1.76
E20: A 2.07 | C 1.52 | D 2.17 | F 2.18 | G 1.41 | H 2.12 | I 1.94 | K 2.08 | L 1.61 | M 2.08 | N 1.88 | P 2.42 | Q 1.65 | R 2.59 | S 2.53 | T 1.92 | V 2.52 | W 2.98 | Y 2.35
K21: A 1.9 | C 1.99 | D 2.14 | E 1.39 | F 2.74 | G 2.17 | H 2.68 | I 1.41 | L 2.2 | M 1.28 | N 1.77 | P 2.17 | Q 2.66 | S 1.56 | T 2.11 | V 3.01 | W 2.48 | Y 1.56
K22: A 2.4 | C 1.65 | D 1.8 | E 1.87 | F 1.84 | G 1.83 | H 1.57 | I 1.71 | L 1.97 | M 2.34 | N 2.29 | P 1.93 | Q 1.67 | R 2.41 | S 1.42 | T 2.3 | V 1.55 | W 1.46 | Y 1.49
S23: A 1.64 | C 2.27 | D 1.72 | E 1.7 | F 2.09 | G 1.68 | H 1.67 | I 1.76 | K 2.31 | L 2.59 | M 1.82 | N 1.64 | P 1.37 | Q 2.22 | T 1.67 | V 1.33 | Y 2.83
K24: A 1.91 | C 2.24 | D 1.83 | E 1.95 | F 1.77 | G 2.4 | H 1.86 | I 2.5 | L 1.99 | M 1.78 | N 1.43 | P 1.17 | Q 1.23 | R 2.59 | S 1.38 | T 1.34 | V 1.46 | W 1.24 | Y 1.86

Variants of: B2
Experiment: as above
Settings: c terminus: a fixed tail appended

Protein stability index of substitutions, site by site:
F1: C 3.31 | D 3.51 | E 4.08 | G 3.15 | H 2.93 | I 2 | K 3.17 | L 2 | M 1.74 | N 3.15 | P 1.87 | Q 2.98 | W 2.3 | Y 2.03
T2: A 1.92 | C 2.96 | D 2.97 | E 3.58 | F 3.05 | I 2.01 | K 1.72 | L 2.25 | N 2.17 | Q 2.35 | R 1.75 | S 2.71 | W 1.43 | Y 2.53
Q3: A 2.01 | D 1.83 | E 2.51 | F 2.34 | G 1.73 | H 2.04 | I 1.58 | K 2.54 | L 1.84 | M 3.03 | N 1.24 | P 1.34 | R 1.48 | S 2.48 | T 1.94 | W 1.51 | Y 1.73
S4: A 2.37 | C 1.48 | E 2.3 | G 2.01 | H 1.91 | I 3.66 | K 1.88 | L 2.78 | N 1.85 | P 2 | Q 2.35 | T 2.82 | Y 2.24
G5: A 1.81 | C 2.57 | D 2.74 | F 2.62 | H 2.42 | I 1.64 | L 1.53 | N 2.34 | Q 2.37 | R 1.66 | S 2.54 | T 2.46 | V 2.39 | Y 3.35
P6: C 1.72 | D 2.08 | E 1.85 | M 3.4 | N 1.07 | T 1.42
I7: A 2.25 | C 1.89 | D 3.31 | E 2.63 | G 1.79 | H 2.66 | L 1.18 | M 1.78 | N 2.73 | P 2.78 | Q 1.98 | R 2.08 | S 2.52 | T 2.36
V8: C 2.04 | D 3.27 | G 1.96 | H 2.58
